Results on 14 molecules are retold here after patent publication US20140242080A1 (Hoffmann-La Roche, published 2014).

To fix the notation:
T1: hu-MCSP(D3 domain)-avi-his (human, UniProt Q6UVK1 1582-2224)
T1 construct: Recombinant D3 domain with avi and his tags; also called human MCSP(D3 domain)-avi-his; Human MCSP D3
T1 sequence: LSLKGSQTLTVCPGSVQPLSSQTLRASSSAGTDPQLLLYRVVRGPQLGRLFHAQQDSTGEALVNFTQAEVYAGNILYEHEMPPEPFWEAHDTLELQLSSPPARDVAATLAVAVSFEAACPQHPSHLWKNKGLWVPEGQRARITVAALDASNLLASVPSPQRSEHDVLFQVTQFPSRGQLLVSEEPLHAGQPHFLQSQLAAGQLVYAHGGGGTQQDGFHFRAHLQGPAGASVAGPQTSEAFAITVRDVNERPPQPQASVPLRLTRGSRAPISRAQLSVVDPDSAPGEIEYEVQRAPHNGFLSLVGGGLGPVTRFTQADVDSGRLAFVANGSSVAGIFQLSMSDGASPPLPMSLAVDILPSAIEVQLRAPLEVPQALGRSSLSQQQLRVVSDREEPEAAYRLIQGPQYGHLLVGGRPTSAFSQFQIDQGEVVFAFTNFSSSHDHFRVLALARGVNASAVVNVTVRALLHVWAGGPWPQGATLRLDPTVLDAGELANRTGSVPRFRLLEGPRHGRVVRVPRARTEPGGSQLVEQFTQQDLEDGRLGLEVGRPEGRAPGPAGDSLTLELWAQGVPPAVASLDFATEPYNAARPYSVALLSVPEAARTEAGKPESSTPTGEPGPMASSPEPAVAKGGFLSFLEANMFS

T2: cynomolgus MCSP D3 (cynomolgus, UniProt Q6UVK1 1582-2224 (human entry), limits assumed)
T2 construct: also called Cyno MCSP; cynomolgus homologue
T2 chain: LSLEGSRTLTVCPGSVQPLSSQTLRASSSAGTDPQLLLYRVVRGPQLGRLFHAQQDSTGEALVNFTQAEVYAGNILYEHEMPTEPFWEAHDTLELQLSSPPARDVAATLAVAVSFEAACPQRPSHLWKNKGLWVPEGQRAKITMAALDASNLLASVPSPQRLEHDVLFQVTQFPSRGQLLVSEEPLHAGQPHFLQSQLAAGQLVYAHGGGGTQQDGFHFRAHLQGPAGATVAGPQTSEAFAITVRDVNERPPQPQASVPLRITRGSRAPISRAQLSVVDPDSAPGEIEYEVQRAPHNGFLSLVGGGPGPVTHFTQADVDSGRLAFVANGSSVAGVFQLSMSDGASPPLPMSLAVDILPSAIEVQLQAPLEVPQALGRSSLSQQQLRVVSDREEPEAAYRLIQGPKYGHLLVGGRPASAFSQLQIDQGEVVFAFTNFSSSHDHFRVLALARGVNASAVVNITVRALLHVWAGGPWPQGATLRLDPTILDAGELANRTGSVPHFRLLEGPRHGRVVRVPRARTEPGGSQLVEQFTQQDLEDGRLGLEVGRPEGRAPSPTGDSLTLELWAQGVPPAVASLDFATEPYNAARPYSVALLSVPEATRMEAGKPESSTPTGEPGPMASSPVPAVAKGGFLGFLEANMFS

B1: 1 + 1 IgG Crossfab; VL/VH exchange (LC007/V9) (anti-MCSP/anti-huCD3) (bispecific antibody)
chain 1: DIVLTQSPSSLSASLGDRVTISCSASQGIRNYLNWYQQRPDGTVKLLIYYTSSLHSGVPSRFSGSGSGTDYSLTISNLEPEDIATYYCQQYSKLPWTFGGGTKLEIKRTVAAPSVFIFPPSDEQLKSGTASVVCLLNNFYPREAKVQWKVDNALQSGNSQESVTEQDSKDSTYSLSSTLTLSKADYEKHKVYACEVTHQGLSSPVTKSFNRGEC
chain 2: DIQMTQSPSSLSASVGDRVTITCRASQDIRNYLNWYQQKPGKAPKLLIYYTSRLESGVPSRFSGSGSGTDYTLTISSLQPEDFATYYCQQGNTLPWTFGQGTKVEIKSSASTKGPSVFPLAPSSKSTSGGTAALGCLVKDYFPEPVTVSWNSGALTSGVHTFPAVLQSSGLYSLSSVVTVPSSSLGTQTYICNVNHKPSNTKVDKKVEPKSCGGGGSGGGGSEVQLQESGPGLVKPSQSLSLTCSVTGYSITSGYYWNWIRQFPGNKLEWMGYITYDGSNNYNPSLKNRISITRDTSKNQFFLKLNSVTTEDTATYYCADFDYWGQGTTLTVSSASTKGPSVFPLAPSSKSTSGGTAALGCLVKDYFPEPVTVSWNSGALTSGVHTFPAVLQSSGLYSLSSVVTVPSSSLGTQTYICNVNHKPSNTKVDKKVEPKSCDKTHTCPPCPAPEAAGGPSVFLFPPKPKDTLMISRTPEVTCVVVDVSHEDPEVKFNWYVDGVEVHNAKTKPREEQYNSTYRVVSVLTVLHQDWLNGKEYKCKVSNKALGAPIEKTISKAKGQPREPQVCTLPPSRDELTKNQVSLSCAVKGFYPSDIAVEWESNGQPENNYKTTPPVLDSDGSFFLVSKLTVDKSRWQQGNVFSCSVMHEALHNHYTQKSLSLSPGK
chain 3: EVQLVESGGGLVQPGGSLRLSCAASGYSFTGYTMNWVRQAPGKGLEWVALINPYKGVSTYNQKFKDRFTISVDKSKNTAYLQMNSLRAEDTAVYYCARSGYYGDSDWYFDVWGQGTLVTVSSASVAAPSVFIFPPSDEQLKSGTASVVCLLNNFYPREAKVQWKVDNALQSGNSQESVTEQDSKDSTYSLSSTLTLSKADYEKHKVYACEVTHQGLSSPVTKSFNRGEC
chain 4: not shown
B2: M4-3(A7)/ML2(E10) IgG (antibody, V domains shown)
VH: QVQLQESGPGLVKPSQTLSLTCTVSGGSITDGYYWNWIRQHPGKGLEWIGYITFDGRNNYNPSLKSRVTISRDTSKNQFSLKLSSVTAADTAVYYCADFDYWGQGTLVTVSS
VL: DIQMTQSPSSLSASVGDRVTITCRASYGIRGYLNWYQQKPGKAPKLLIYYTSSLHSGVPSRFSGSGSGTDFTLTISSLQPEDFATYHCQQYSKLPWTFGQGTKVEIK
notes: Human IgG1
B3: M4-3(C1)/ML2 IgG (antibody, V domains shown)
VH: B2 VH with D31S, R57S
VL: DIQMTQSPSSLSASVGDRVTITCRASQGIRNYLNWYQQKPGKAPKLLIYYTSSLHSGVPSRFSGSGSGTDFTLTISSLQPEDFATYYCQQYSKLPWTFGQGTKVEIKR
notes: Human IgG1; copies: 2 + 2
B4: M4-3/ML2(E10) IgG (antibody, V domains shown)
VH: B2 VH with D31S, F54Y, R57S
VL: B2 VL
notes: Human IgG1
B5: M4-3(A7)/ML2 IgG (antibody, V domains shown)
VH: B2 VH
VL: B2 VL with Y27Q, G31N, H87Y
notes: Human IgG1
B6: M4-3/ML2(G3) IgG (antibody, V domains shown)
VH: B2 VH with D31S, F54Y, R57S
VL: B2 VL with Y27Q, G31N, F71Y, H87Y, K93A
notes: Human IgG1
B7: M4-3(D6)/ML2 IgG (antibody, V domains shown)
VH: B2 VH with D31S, R57K
VL: B2 VL with Y27Q, G31N, H87Y
notes: Human IgG1
B8: M4-3/ML2(C5) IgG (antibody, V domains shown)
VH: B2 VH with D31S, F54Y, R57S
VL: B2 VL with Y27R, G31E, S52G, H87Y, K93E
notes: Human IgG1
B9: M4-3(A7)/ML2(G3) IgG (antibody, V domains shown)
VH: B2 VH
VL: B2 VL with Y27Q, G31N, F71Y, H87Y, K93A
notes: Human IgG1
B10: M4-3(B8)/ML2 IgG (antibody, V domains shown)
VH: B2 VH with D31S
VL: B2 VL with Y27Q, G31N, H87Y
notes: Human IgG1
B11: M4-(A7)/ML2(C5) IgG (antibody, V domains shown)
VH: B2 VH
VL: B2 VL with Y27R, G31E, S52G, H87Y, K93E
notes: Human IgG1; also called M4-3(A7)/ML2(C5)
B12: M4-3(B7)/ML2 IgG (antibody, V domains shown)
VH: B2 VH with D31S, R57I
VL: B2 VL with Y27Q, G31N, H87Y
notes: Human IgG1
B13: M4-3/ML2(E10/G3) IgG (antibody, V domains shown)
VH: B2 VH with D31S, F54Y, R57S
VL: B2 VL with K93A
notes: Human IgG1
B14: M4-3/ML2(C5/G3) IgG (antibody, V domains shown)
VH: B2 VH with D31S, F54Y, R57S
VL: B2 VL with Y27R, G31E, S52G, H87Y, K93A
notes: Human IgG1

Positions count from the first letter of the chain named.

Sequence of human MCSP expressed on tumor cells (Colo-38, WM266-4, A375, MV-3, HCT-116) (Q6UVK1 30-2322): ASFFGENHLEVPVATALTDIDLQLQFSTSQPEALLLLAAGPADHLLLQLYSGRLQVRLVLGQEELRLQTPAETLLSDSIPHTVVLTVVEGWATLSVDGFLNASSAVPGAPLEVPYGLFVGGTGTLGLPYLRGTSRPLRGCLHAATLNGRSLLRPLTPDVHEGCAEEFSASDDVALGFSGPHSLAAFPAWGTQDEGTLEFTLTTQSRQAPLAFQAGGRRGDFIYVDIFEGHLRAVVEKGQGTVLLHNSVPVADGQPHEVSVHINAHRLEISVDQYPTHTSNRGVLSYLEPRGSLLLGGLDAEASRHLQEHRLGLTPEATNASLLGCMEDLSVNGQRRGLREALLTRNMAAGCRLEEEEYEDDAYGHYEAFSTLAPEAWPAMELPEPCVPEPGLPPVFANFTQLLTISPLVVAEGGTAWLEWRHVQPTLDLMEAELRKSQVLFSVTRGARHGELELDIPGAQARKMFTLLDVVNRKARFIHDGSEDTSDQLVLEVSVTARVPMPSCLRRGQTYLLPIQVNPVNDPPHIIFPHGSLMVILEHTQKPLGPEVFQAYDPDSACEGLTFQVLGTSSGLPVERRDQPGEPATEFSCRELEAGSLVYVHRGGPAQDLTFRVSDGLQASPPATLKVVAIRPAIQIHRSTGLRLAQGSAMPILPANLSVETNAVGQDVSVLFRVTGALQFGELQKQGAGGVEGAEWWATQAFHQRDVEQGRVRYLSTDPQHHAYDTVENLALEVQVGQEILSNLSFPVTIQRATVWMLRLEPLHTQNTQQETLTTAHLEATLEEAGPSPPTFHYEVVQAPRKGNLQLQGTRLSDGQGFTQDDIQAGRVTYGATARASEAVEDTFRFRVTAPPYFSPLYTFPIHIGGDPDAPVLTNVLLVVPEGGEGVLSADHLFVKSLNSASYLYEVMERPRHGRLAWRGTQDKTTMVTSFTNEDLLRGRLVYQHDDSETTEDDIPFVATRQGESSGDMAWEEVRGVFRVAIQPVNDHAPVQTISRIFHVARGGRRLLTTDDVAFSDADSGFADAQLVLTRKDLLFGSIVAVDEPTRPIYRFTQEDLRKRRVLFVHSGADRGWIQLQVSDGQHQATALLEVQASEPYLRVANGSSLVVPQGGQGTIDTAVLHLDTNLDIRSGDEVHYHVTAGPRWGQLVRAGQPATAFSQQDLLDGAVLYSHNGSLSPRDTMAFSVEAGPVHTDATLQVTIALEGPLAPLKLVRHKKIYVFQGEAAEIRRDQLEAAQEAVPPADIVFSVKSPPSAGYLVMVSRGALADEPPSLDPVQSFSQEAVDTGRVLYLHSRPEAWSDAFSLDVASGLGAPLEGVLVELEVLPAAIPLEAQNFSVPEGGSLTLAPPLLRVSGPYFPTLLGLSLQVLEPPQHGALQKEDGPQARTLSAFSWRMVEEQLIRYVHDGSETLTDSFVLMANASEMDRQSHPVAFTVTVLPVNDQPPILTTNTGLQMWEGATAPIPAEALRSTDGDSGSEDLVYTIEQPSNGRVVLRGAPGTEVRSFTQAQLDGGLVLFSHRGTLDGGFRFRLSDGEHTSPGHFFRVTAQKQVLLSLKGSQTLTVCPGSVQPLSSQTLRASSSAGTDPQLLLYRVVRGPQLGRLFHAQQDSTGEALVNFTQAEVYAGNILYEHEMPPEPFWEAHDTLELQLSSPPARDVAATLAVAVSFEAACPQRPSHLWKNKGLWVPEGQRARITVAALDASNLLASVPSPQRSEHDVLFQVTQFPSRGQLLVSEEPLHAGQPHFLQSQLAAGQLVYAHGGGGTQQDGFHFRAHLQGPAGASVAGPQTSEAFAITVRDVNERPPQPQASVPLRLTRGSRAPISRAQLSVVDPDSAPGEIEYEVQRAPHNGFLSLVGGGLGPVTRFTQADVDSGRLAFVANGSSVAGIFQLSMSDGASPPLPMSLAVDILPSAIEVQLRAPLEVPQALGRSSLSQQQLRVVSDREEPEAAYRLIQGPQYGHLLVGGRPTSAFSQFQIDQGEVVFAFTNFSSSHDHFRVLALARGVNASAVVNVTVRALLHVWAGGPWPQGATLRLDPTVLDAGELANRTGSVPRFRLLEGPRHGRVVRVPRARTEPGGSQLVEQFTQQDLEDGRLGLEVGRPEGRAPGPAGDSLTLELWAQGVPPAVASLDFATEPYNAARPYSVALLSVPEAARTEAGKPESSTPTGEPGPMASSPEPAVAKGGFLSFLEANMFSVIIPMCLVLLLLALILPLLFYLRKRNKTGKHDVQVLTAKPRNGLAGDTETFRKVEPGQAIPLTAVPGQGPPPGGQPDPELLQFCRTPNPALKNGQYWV

The first experiment has as its target human MCSP expressed on tumor cells (Colo-38, WM266-4, A375, MV-3, HCT-116) (human, UniProt Q6UVK1 30-2322). The experiment can be described thus: cell-based or functional assay.
Take B1: the “EC50 of T cell-mediated killing (LDH release), MV-3 cells, human PBMCs E:T 10:1, 21 h” value turned out to be 0.0409 nM and the “EC50 of T cell-mediated killing (LDH release), WM266-4 cells, human PBMCs E:T 10:1, 21 h” value was found to be 0.0284 nM.

Another experiment has as its target T1, hu-MCSP(D3 domain)-avi-his. The experiment in a line: ratio of ProteOn IgG KD, parent M4-3/ML2 against variant.
For the molecule B2, the “Fold increase over parent” value was 6.7 fold.
B3: the “Fold increase over parent” value turned out to be 2.2 fold.
On the same count and under the same terms, for B4 the value was 2 fold; for B5, 2.5 fold; for B6, 6.7 fold.
Still for that read-out and setting: for B7 the value was 5 fold.
In the case of B8, the “Fold increase over parent” value is 5 fold.
Regarding B9, the “Fold increase over parent” value came to 28.6 fold.
On the same count and under the same terms, in the case of B10 it was 2.2 fold; in that of B11, 28.6 fold; in that of B12, 4 fold.
In the case of B13, the “Fold increase over parent” value was found to be 5 fold.
The same measure, in the same setting: for B14 the value was 2.9 fold.

In a further experiment the target is T2, cynomolgus MCSP D3. The experiment is described as above.
Turning to B2, the “Fold increase over parent” value came to 2.9 fold.
Still for that read-out and setting: in the case of B3 it was 2.5 fold.
On to B4, for which the “Fold increase over parent” value was determined as 1 fold.
B5: the “Fold increase over parent” value was determined as 2 fold.
Take B6: the “Fold increase over parent” value came to 3.3 fold.
The same measure, in the same setting: for B7 the value was 2 fold; for B8, 2 fold.
Take B9: the “Fold increase over parent” value came to 10 fold.
Take B10: the “Fold increase over parent” value was 2 fold.
On the same count and under the same terms, in the case of B11 it was 10 fold; in that of B12, 2.9 fold.
Consider B13, for which the “Fold increase over parent” value is 2.2 fold.
In the case of B14, the “Fold increase over parent” value was 2 fold.

The next experiment addresses T1, hu-MCSP(D3 domain)-avi-his. The experiment in a line: SPR ProteOn XPR36, 25 C; IgG captured via anti-human F(ab')2, MCSP D3 as analyte.
Take B2: the affinity, expressed as Kd, was 0.3 nM.
For B3, binding was put at a Kd of 0.9 nM.
Turning to B4, the Kd (in general, the concentration at which binding is half-saturated) was 1 nM.
Consider B5, for which binding was characterised by a dissociation constant (Kd) of 0.8 nM.
The molecule B6 had a Kd of 0.3 nM.
The same measure, in the same setting: for B7 the value was 0.4 nM; for B8, 0.4 nM.
Still for that read-out and setting: in the case of B9 it was 0.07 nM; in that of B10, 0.9 nM; in that of B11, 0.7 nM.
Same read-out and setting: for B12 the value was 0.5 nM; for B13, 0.4 nM.
In turn, B14 displayed a Kd of 0.7 nM.

In another experiment the target is T2, cynomolgus MCSP D3. Described as above.
The molecule B2 came in with a Kd of 0.7 nM.
For the molecule B3, the Kd worked out at 0.8 nM.
The same measure, in the same setting: in the case of B4 it was 2 nM; in that of B5, 1 nM.
B6: binding was put at a Kd of 0.6 nM. Against the preceding molecule, the Kd is about 1.7-fold lower.
The molecule B7 returned a Kd of 1 nM.
For B8, the Kd is 1 nM.
Take B9: the Kd was 0.2 nM.
The same measure, in the same setting: in the case of B10 it was 1 nM.
Turning to B11, the Kd stood at 0.2 nM.
The same measure, in the same setting: for B12 the value was 0.7 nM.
B13 showed a Kd of 0.9 nM.
The molecule B14 registered a Kd of 1 nM.
